Data on one molecule can be found in article PMC7835374 (Nature Communications, 2021).

The target of this assay is recombinant full-length hemagglutinin H6 (A/Taiwan/2/2013) (Influenza A virus A/Taiwan/2/2013 (H6N1), strain). Put plainly: BLI. To be noted: both partners purified.

B1: 3I14 IgG1 (wild type) (antibody, V domains shown)
VH: QVQLLESGGGVVQPGRSLRLSCAASGFTFSNYGMHWVRQAPGKGLEWVAIISFDGSKKYYANSVKGRSTISRDNSKNTLSLQMNSLGPEDTALYYCAKLPSPYYFDSRFVWVAASAFHFWGQGILVTVSS
VL: NFMLTQPPSASGTPGQRVTISCSGSSSNIGGNTVHWFQQLPGTAPKLLIYTNSLRPSGVPDRFSGSKSGTSASLAISGLQSEDEADYYCAAWDDSLNGQVFGGGTKLTVL
notes: copies: 2 + 2
What is called Kd is a measure of binding affinity in units of concentration. In general, koff refers to a measure of how fast the partners let go of each other. The term kon denotes the rate constant with which the complex forms. For the molecule B1, the Kd worked out at 2.9 nM, the koff amounted to 0.000152 s⁻¹ and the kon amounted to 51900 M⁻¹ s⁻¹.
